Reference: US5935824A, “Protein expression system” (Technologene, Inc., priority 1996, dated 1999)
No end group written: not given here.

Legend:
[1] = target: T1, carboxypeptidase Y (CPD-Y) immobilized to Acti-Disk (Saccharomyces cerevisiae, UniProt P00729); experiment: Flow digestion of Lys-Lys peptide through CPD-Y Acti Disk, modified ninhydrin assay; type: biochemical, yeast; details: 400 μM peptide; pH 5.75; flow 2 ml/min and 500 μl/min
T1 construct: purchased Sigma
T1 sequence (P00729 112-532): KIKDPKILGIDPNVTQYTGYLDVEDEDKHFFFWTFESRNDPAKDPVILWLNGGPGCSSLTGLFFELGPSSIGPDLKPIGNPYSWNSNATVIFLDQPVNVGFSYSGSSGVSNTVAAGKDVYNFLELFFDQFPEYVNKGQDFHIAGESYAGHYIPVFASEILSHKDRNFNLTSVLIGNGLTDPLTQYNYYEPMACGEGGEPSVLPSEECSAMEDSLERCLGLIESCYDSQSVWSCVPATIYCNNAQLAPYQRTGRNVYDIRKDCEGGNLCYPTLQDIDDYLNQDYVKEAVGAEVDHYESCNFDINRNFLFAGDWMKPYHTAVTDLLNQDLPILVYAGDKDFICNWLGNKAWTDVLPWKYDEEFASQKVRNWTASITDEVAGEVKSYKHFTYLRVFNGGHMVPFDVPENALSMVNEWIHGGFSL
Procedure: The peptide sequence is […](SEQ ID NO:73) (Sigma; herein after referred to as the Lys-Lys peptide). Analysis of the of the reaction rates required the use of a modified ninhydrin assay developed by Doi, et al. for the analysis of peptidase activity [Anal. Biochem. 118:173 (1981)]. Compared to the ninhydrin assays described above, the pH of the ninhydrin solution is reduced (pH=4.6) and the heating time is shortened (less than or equal to 20 minutes) such that only free amino acids react at appreciable rates. Incubation times were strictly controlled by performing incubation at elevated temperatures in a programmable thermocycler (Hybaid).
The Lys-Lys peptide was suspended at a concentration of 400 μM in 100 mM Citrate buffer, 100 mM NaCl, pH 5.75 and subjected to flow digestions at 2 ml/min and 500 μl/min. The amount of free lysine released was quantified by mixing 200 μl of flow sample with 200 μl 0.2 M NaCitrate, pH 4.6 and 100 μl of 2.5% ninhydrin in methyl cellusolve (Sigma), 0.03% ascorbic acid. […] The OD570 was determined and the values were converted to μM of product in order to determine the first order rate constant for the Lys-Lys bond in the CPD-Y Acti Disk flow digestion (k=0.160). This is the same value determined for the N-CBZ-Gly-Pro dipeptide. […]

[2] = target: T1, carboxypeptidase Y (CPD-Y) immobilized to Acti-Disk; experiment: Flow digestion of control peptide through CPD-Y immobilized on Acti-Disk, HPLC analysis; type: biochemical, yeast
Procedure: To achieve limited, specific digestion of the control peptide (i.e., removal of the phenylalanine residue only) approximately 4 mg of CPD-Y (Sigma) was immobilized to a pre-activated (GTA) Acti-Disk Cartridge (25 mm; Arbor Technologies). The silicon-based matrix within the Acti-Disk is described in U.S. Pat. No. 3,862,030, the disclosure of which is herein incorporated by reference. Essentially, this matrix is a microporous fluid-permeable filter that has finely divided hydrophilic filler particles dispersed throughout a microporous matrix which are capable of binding large amounts of protein or enzyme. The matrix has an extremely large surface area (80 m^2 /gram) attributed to a large number of interconnected pores of non-uniform size distribution. The matrix is 60% porous and is commercially available in a wide variety of sizes and thicknesses for scale-up. This matrix represents a limited-diffusional matrix.
Immobilization of CPD-Y to the Acti-Disk cartridge was accomplished by recirculating 10 mls of a solution containing 1 mg/ml CPD-Y in 100 mM Na Citrate (pH 6.0) through the Acti-Disk according to the manufacturers protocol for 90 minutes at room temperature. The OD280 of the CPD-Y solution was measured before and after the immobilization procedure. The disk was washed extensively with 100 mM Tris-HCl (pH 8.0), 500 mM NaCl buffer until no protein was detected in the wash. The final concentration of enzyme per available fluid volume within the disk (65 nmoles/115 μl) was 0.565 mM (35 mg/ml). The porous nature of the Acti-Disk matrix immobilizes the carboxypeptidase enzyme on the […] of the matrix allowing a more consistent exposure of the substrate to enzyme than do the traditional cross linked agarose matrixes.
The control peptide (SEQ ID NO:70), at a concentration of 100 μg/ml, was passed through the CPD-Y Disk at flow rates ranging from 4 ml/min to 100 μl/min; a […] pump (Pharmacia) was used to regulate the flow. A 2 ml sample of the flow digestion at 4 ml/min was collected. The setting on the peristaltic pump was changed to 3 ml/min and the reaction was allowed to equilibrate. Five milliliters of the solution containing the control peptide processed at the lower flow rate (3 ml/min) was allowed to pass through the exit tubing before another 2 ml sample was collected. This procedure was repeated at each designated flow rate. An aliquot (25 μl) of each sample was run on the Hytach protein column as described above. In Table 4 the time refers to time spent in the reaction chamber (i.e., the Acti-Disk).
This value was determined by comparing the initial velocity of the control peptide CPD-Y-Acti-Disk flow digestion to the manufacturer's specific activity for free enzyme (i.e., enzyme present in solution) through the use of the Michaelis-Menton rate equation. The specific activity for Phe-Ala substrate 100 μmoles/mg (Sigma) was converted to activity by multiplying by the amount of enzyme immobilized within the Acti-Disk matrix (4 mg). […] This value compares well to the value that can be approximated from the Kcat data provided by Kuhn. The Kcat value for the cleavage of the Ser-Phe bond by free CPD-Y can be deduced from Kuhn's data to be approximately 400/min and this value was used to calculate the maximum initial velocity (Vo at [S]=79 μM) for 100% activity of the immobilized enzyme. […] 100% activity (Vo) for 79 μM flow digestion experiments is calculated using the theoretical KM =0.69 mM deduced from Kuhn's data, Vo=23.2 mM/min. Initial velocity Vo for control peptide flow experiments were determined by plotting μM of product produced versus seconds of incubation within the immobilization matrix of the Acti-Disk (see FIG. 29).
In FIG. 29, the log ([S]/[S]-[P]) (in μM) is plotted against the incubation time (in seconds). For the results shown in FIG. 29, the following calculations apply: the 4000 μl/min flow rate through 115 μl reaction matrix equals 1.73 seconds within the matrix. […]

[3] = target: T2, CPD-Y immobilized on cross-linked agarose (Saccharomyces cerevisiae, UniProt P00729); experiment: Recirculating digestion of control peptide over CPD-Y/agarose column, HPLC; type: biochemical, yeast; details: 100 μg/ml in PBS pH 6.5; gravity flow
T2 construct: purchased Pierce
T2 sequence (P00729 112-532): T1 sequence (P00729 112-532)
Procedure: Ten milliliters of a solution containing 100 μg/ml of the control peptide in PBS (pH 6.5) was repeatedly passed through 1 ml of a matrix consisting of CPD-Y immobilized on cross-linked agarose (12.5 U/ml, Pierce). The 10 ml sample was applied to the top of a 1.0 cm Affinica column (Schleicher & Schuell) containing 1.0 ml of the immobilized CPD-Y/agarose and allowed to flow by gravity. An aliquot (100 μl) of the digestion reaction were taken and the remaining sample was reapplied to the column as the previous sample approached the matrix (i.e., the sample was recirculated through the column). Aliquots (100 μl) were removed after 1, 5, 11 and 17 passes over the immobilized CPD-Y/agarose column; 20 μl of these aliquots were analyzed by high pressure liquid chromatography (HPLC) using a TFA/acetonitrile gradient and a C-18 column (Hytach protein column). A Shimadzu HPLC spectrophotometer equipped with a UV recorder was adjusted to analyze the digestion products at 210 nm. The following buffers were used for the HPLC analysis. Buffer A consisted of 1.125% TFA and Buffer B consisted of 1.0% TFA in 80% acetonitrile. To achieve separation of the peptides produced by CPD-Y digestion of the control peptide, a gradient of 0-30% B buffer was applied over a 30 minute period.

[4] = target: T1, carboxypeptidase Y (CPD-Y) immobilized to Acti-Disk; details: free CPD-Y; deduced from Kuhn; cited from earlier work

Sequence: PLSRLSVAKK [Lys-Lys peptide]
- First order rate constant for the Lys-Lys bond (k) [1]: 0.160

Sequence: ALKDAQTNSSSF [control peptide]
- Initial reaction rate (Vo), observed ([2]; 79 μM control peptide, initial slope of fitted curve): ~3.6 mM/min
- Cleavage of the ultimate bond (Ser-Phe) ([2]; 100 μg/ml, single pass, flow rate 500 μl/ml (so in the source)): 86%
- Cleavage of the ultimate bond (Ser-Phe) ([2]; 5 ml recirculated 20 minutes at the same flow rate): 96%
- Vmax for 100% activity ([2]; Kcat 400/min × 0.565 mM enzyme): 226 mM/min
- Vo for 100% activity of the immobilized enzyme ([2]; [S]=79 μM, theoretical KM 0.69 mM): 23.2 mM/min
- Product ([2]; control peptide 100 μg/ml, flow rate 0.25 ml/min, 27.6 sec in Acti-Disk): 72 µM
- % Product Remaining ([2]; control peptide 100 μg/ml, flow rate 0.25 ml/min, 27.6 sec in Acti-Disk, 0.46 min): 8.3%
- Product ([2]; flow rate 0.50 ml/min, 13.8 sec): 68 µM
- % Product Remaining ([2]; flow rate 0.50 ml/min, 13.8 sec, 0.23 min): 14.0%
- Product ([2]; flow rate 1.0 ml/min, 6.9 sec): 59 µM
- % Product Remaining ([2]; flow rate 1.0 ml/min, 6.9 sec, 0.115 min): 25.6%
- Product ([2]; flow rate 1.5 ml/min, 4.6 sec): 54 µM
- % Product Remaining ([2]; flow rate 1.5 ml/min, 4.6 sec, 0.0766667 min): 32.4%
- Product ([2]; flow rate 2.0 ml/min, 3.45 sec): 48 µM
- % Product Remaining ([2]; flow rate 2.0 ml/min, 3.45 sec, 0.0575 min): 38.7%
- Product ([2]; flow rate 2.5 ml/min, 2.76 sec): 45 µM
- % Product Remaining ([2]; flow rate 2.5 ml/min, 2.76 sec, 0.046 min): 42.8%
- Product ([2]; flow rate 3.0 ml/min, 2.3 sec): 43 µM
- % Product Remaining ([2]; flow rate 3.0 ml/min, 2.3 sec, 0.0383333 min): 46.4%
- Product ([2]; flow rate 4.0 ml/min, 1.73 sec): 39 µM
- % Product Remaining ([2]; flow rate 4.0 ml/min, 1.73 sec, 0.0288333 min): 51.5%
- Cleavage of the second bond (Ser-Ser) ([2]; recirculation at 500 μl/min): not detectably cleaved
- Control peptide molecules with carboxy-terminal phenylalanine removed ([2]; varied flow rate and substrate concentration): approximately 96%
- Passes needed to substantially decrease the amount of full length peptide [3]: > 15 passes
- Estimated Km for the Ser-Phe bond [4]: 690 µM
- Kcat for the Ser-Phe bond [4]: 6.67 s⁻¹
